# Laboratory results as given in publication PMC7549369.
# Columns and labels:
# [1] = target: SipL-3×FLAG (Clostridioides difficile) (UniProt Q181G7); test: co-IP; SipL-3×FLAG immunoprecipitated with anti-FLAG magnetic beads from cleared lysates of sporulating C. difficile (22 h in the legend, 24 h in the methods), eluted with FLAG peptide; untagged SpoIVA detected by Western blot; SpoIVA/SipL ratio in the elution set to 1 for WT
# [2] = target: SipL (bacterial two-hybrid fusion from pKNT25-sipL) (Clostridioides difficile) (UniProt Q181G7); test: two-hybrid; bacterial adenylate cyclase two-hybrid (BACTH) in E. coli BTH101; pKNT25-sipL with pUT18C-spoIVA variants; plates with 0.5 mM IPTG, 40 h at 30°C; β-galactosidase activity in Miller units
substance,measurement,setting,value
"SpoIVA D102A, untagged, in sporulating C. difficile (from UniProt Q182W3 1-491) (natural protein)",fold more coimmunoprecipitated with SipL-3×FLAG relative to wild-type SpoIVA,[1],1.8 fold
"SpoIVA K35A (bacterial two-hybrid fusion, pUT18C) (from UniProt Q182W3 1-491) (natural protein)",fold reduction of binding to SipL relative to wild-type SpoIVA (β-galactosidase activity),[2],3 fold
"SpoIVA K35A, untagged, in sporulating C. difficile (from UniProt Q182W3 1-491) (natural protein)",fold less coimmunoprecipitated with SipL-3×FLAG relative to wild-type SpoIVA,[1],3 fold
"SpoIVA K35E (bacterial two-hybrid fusion, pUT18C) (from UniProt Q182W3 1-491) (natural protein)",fold reduction of binding to SipL relative to wild-type SpoIVA (β-galactosidase activity),[2],100 fold
"SpoIVA K35E, untagged, in sporulating C. difficile (from UniProt Q182W3 1-491) (natural protein)",fold less coimmunoprecipitated with SipL-3×FLAG relative to wild-type SpoIVA,[1],10 fold
"SpoIVA T75A (bacterial two-hybrid fusion, pUT18C) (from UniProt Q182W3 1-491) (natural protein)",fold increase of binding to SipL relative to WT SpoIVA (β-galactosidase activity),[2],2 fold
"SpoIVA T75A, untagged, in sporulating C. difficile (from UniProt Q182W3 1-491) (natural protein)",fold more coimmunoprecipitated with SipL-3×FLAG relative to wild-type SpoIVA,[1],1.5 fold
